± gives the standard deviation of the averaged measurements.
Test: total protein half-life in vivo (active degradation + dilution); higher = more stable protein
[1] = E. coli NCM3722 delta-clpP, growth: N-lim chemostat, doubling time 6 h
[2] = E. coli NCM3722 delta-hslV, growth: N-lim chemostat, doubling time 6 h
[3] = E. coli NCM3722 delta-lon, growth: N-lim chemostat, doubling time 6 h
[4] = E. coli NCM3722 delta-smpB, growth: N-lim chemostat, doubling time 6 h
[5] = wild type E. coli NCM3722, growth: C-lim chemostat, doubling time 3 h
[6] = wild type E. coli NCM3722, growth: C-lim chemostat, doubling time 6 h
[7] = wild type E. coli NCM3722, growth: C-lim chemostat, doubling time 12 h
[8] = wild type E. coli NCM3722, growth: N-lim chemostat, doubling time 6 h
[9] = wild type E. coli NCM3722, growth: N-lim chemostat, doubling time 12 h
[10] = wild type E. coli NCM3722, growth: P-lim chemostat, doubling time 6 h
[11] = wild type E. coli NCM3722, growth: P-lim chemostat, doubling time 12 h
[12] = E. coli NCM3722 delta-clpP delta-lon delta-hslV, growth: N-lim chemostat, doubling time 6 h

Row | Sequence | total protein half-life in vivo [1] [h] | total protein half-life in vivo [2] [h] | total protein half-life in vivo [3] [h] | total protein half-life in vivo [4] [h] | total protein half-life in vivo [5] [h] | total protein half-life in vivo [6] [h] | total protein half-life in vivo [7] [h] | total protein half-life in vivo [8] [h] | total protein half-life in vivo [9] [h] | total protein half-life in vivo [10] [h] | total protein half-life in vivo [11] [h] | total protein half-life in vivo [12] [h]
1 | MQNAGSLVVLGSINADHILNLQSFPTPGETVTGNHYQVAFGGKGANQAVAAGRSGANIAFIACTGDDSIGESVRQQLATDNIDITPVSVIKGESTGVALIFVNGEGENVIGIHAGANAALSPALVEAQRERIANASALLMQLESPLESVMAAAKIAHQNKTIVALNPAPARELPDELLALVDIITPNETEAEKLTGIRVENDEDAAKAAQVLHEKGIRTVLITLGSRGVWASVNGEGQRVPGFRVQAVDTIAAGDTFNGALITALLEEKPLPEAIRFAHAAAAIAVTRKGAQPSVPWREEIDAFLDRQR [P0A9J6] | 6.07 ± 2.1 | 4.44 ± 0.042 | 4.91 ± 0.38 | 4.54 ± 0.2 | 3.14 ± 0.1 | 5.66 ± 0.076 | 11.8 ± 0.53 | 4.74 ± 0.36 | 7.76 ± 0.41 | 5.878 ± 0.056 | 11.9 ± 0.91 | –
2 | MEKTYNPQDIEQPLYEHWEKQGYFKPNGDESQESFCIMIPPPNVTGSLHMGHAFQQTIMDTMIRYQRMQGKNTLWQVGTDHAGIATQMVVERKIAAEEGKTRHDYGREAFIDKIWEWKAESGGTITRQMRRLGNSVDWERERFTMDEGLSNAVKEVFVRLYKEDLIYRGKRLVNWDPKLRTAISDLEVENRESKGSMWHIRYPLADGAKTADGKDYLVVATTRPETLLGDTGVAVNPEDPRYKDLIGKYVILPLVNRRIPIVGDEHADMEKGTGCVKITPAHDFNDYEVGKRHALPMINILTFDGDIRESAQVFDTKGNESDVYSSEIPAEFQKLERFAARKAVVAAVDALGLLEEIKPHDLTVPYGDRGGVVIEPMLTDQWYVRADVLAKPAVEAVENGDIQFVPKQYENMYFSWMRDIQDWCISRQLWWGHRIPAWYDEAGNVYVGRNEDEVRKENNLGADVVLRQDEDVLDTWFSSALWTFSTLGWPENTDALRQFHPTSVMVSGFDIIFFWIARMIMMTMHFIKDENGKPQVPFHTVYMTGLIRDDEGQKMSKSKGNVIDPLDMVDGISLPELLEKRTGNMMQPQLADKIRKRTEKQFPNGIEPHGTDALRFTLAALASTGRDINWDMKRLEGYRNFCNKLWNASRFVLMNTEGQDCGFNGGEMTLSLADRWILAEFNQTIKAYREALDSFRFDIAAGILYEFTWNQFCDWYLELTKPVMNGGTEAELRGTRHTLVTVLEGLLRLAHPIIPFITETIWQRVKVLCGITADTIMLQPFPQYDASQVDEAALADTEWLKQAIVAVRNIRAEMNIAPGKPLELLLRGCSADAERRVNENRGFLQTLARLESITVLPADDKGPVSVTKIIDGAELLIPMAGLINKEDELARLAKEVAKIEGEISRIENKLANEGFVARAPEAVIAKEREKLEGYAEAKAKLIEQQAVIAAL | 5.48 ± 1.1 | 4.68 ± 0.11 | 5.17 ± 0.062 | 4.417 ± 0.013 | 3 ± 0.27 | 5.796 ± 0.013 | 10.5 ± 0.32 | 4.721 ± 0.046 | 7.86 ± 0.2 | 5.92 ± 0.23 | 10.7 ± 0.61 | 5.35 ± 0.76
3 | MSENSIRLTQYSHGAGCGCKISPKVLETILHSEQAKFVDPNLLVGNETRDDAAVYDLGNGTSVISTTDFFMPIVDNPFDFGRIAATNAISDIFAMGGKPIMAIAILGWPINKLSPEIAREVTEGGRYACRQAGIALAGGHSIDAPEPIFGLAVTGIVPTERVKKNSTAQAGCKLFLTKPLGIGVLTTAEKKSLLKPEHQGLATEVMCRMNIAGASFANIEGVKAMTDVTGFGLLGHLSEMCQGAGVQARVDYEAIPKLPGVEEYIKLGAVPGGTERNFASYGHLMGEMPREVRDLLCDPQTSGGLLLAVMPEAENEVKATAAEFGIELTAIGELVPARGGRAMVEIR | 2.94 ± 0.2 | 2.5242 ± 0.00055 | 3.85 ± 0.73 | 2.76 ± 0.077 | 3.01 ± 0.23 | 4.95 ± 0.13 | 8.899 ± 0.067 | 2.816 ± 0.0089 | 3.67 ± 0.27 | 5.34 ± 0.23 | 10.1 ± 0.65 | 3.58 ± 0.34
4 | MNLNSIPAFDDNYIWVLNDEAGRCLIVDPGDAEPVLNAIAANNWQPEAIFLTHHHHDHVGGVKELVEKFPQIVVYGPQETQDKGTTQVVKDGETAFVLGHEFSVIATPGHTLGHICYFSKPYLFCGDTLFSGGCGRLFEGTASQMYQSLKKLSALPDDTLVCCAHEYTLSNMKFALSILPHDLSINDYYRKVKELRAKNQITLPVILKNERQINVFLRTEDIDLINVINEETLLQQPEERFAWLRSKKDRF [P0AC84] | 4.24 ± 0.2 | 4.88 ± 0.89 | 4.5351 ± 0.0033 | 4.01 ± 0.41 | 2.81 ± 0.13 | 4.76 ± 0.13 | 7.09 ± 1.1 | 4.31 ± 0.21 | 6.316 ± 0.03 | 4.81 ± 0.13 | 8.75 ± 0.89 | 4.67 ± 0.3

— the supplement of paper PMC11246515
